{"source": "paper PMC10705946", "about": "“^225Ac-iPSMA-RGD for Alpha-Therapy Dual Targeting of Stromal/Tumor Cell PSMA and Integrins” (International Journal of Molecular Sciences, 2023)", "key": {"[1]": {"assay": "in vivo", "protocol": "(§1) All animal procedures followed the Ethical Regulations for the Handling of Laboratory Animals (NOM-062-ZOO-1999) and the requirements of the Institutional Animal Care and Use Committee, according to an approved protocol (CICUAL-08-2018-2021). […] Mice were injected with 3.7 kBq (50 µL) of ^225Ac-iPSMA-RGD and necropsied at 1, 3, 24, 72, and 96 h (n = 3). The liver, heart, kidney, pancreas, lung, spleen, small intestine, and stomach were measured using the Francium-221 photopeak (218 keV) in a hyperpure germanium gamma spectrometer (Ortec, Atlanta, GA, USA). Results were recorded as a percentage of injected dose (%ID) per organ. Blood and bone samples were also dissected, and the associated activity was recorded as %ID/g. A second group of mice was inoculated subcutaneously with 1 × 10^6 HCT116 cells. […] Animals were necropsied on day 11 post-treatment, as described above. Radioisotopic/X-ray ex vivo images of the source organs and tumor were obtained in a preclinical imaging system (Bruker, XTREME, Billerica, MA, USA)."}, "[2]": {"system": "HCT116 tumor and lung, spleen, kidney, liver tissues", "assay": "Histology (H&E) and immunohistochemistry of organs and tumor", "assay_type": "in vivo, mice", "protocol": "Formalin-fixed paraffin-embedded samples (lung, spleen, kidney and tumor), were sectioned at 4 µm sections and stained with H&E. For immunohistochemical reactions, samples were deparaffinized, hydrated, and subjected to an antigen retrieval protocol (slides were immersed in a prewarmed Citrate-EDTA buffer solution (10mM citric acid, 2 mM EDTA, 0.05% Tween 20, pH 7.0) at 100 °C for 30 min. Endogenous peroxidase was then blocked with 0.9% hydrogen peroxide (H2O2) solution for 5 min. To prevent non-specific binding, the samples were incubated with 5% bovine serum albumin (BSA) for 10 min. After subsequent washes with phosphate-buffered saline (PBS)-Tween (0.05%), samples were incubated overnight at 4 °C with primary monoclonal rabbit anti- Ki-67 [SP6] antibody (Biocare Medi-cal-CRM 325A, Pacheco, CA, USA). After subsequent washing, samples were incubated with secondary HRP donkey anti-rabbit IgG (minimal x-reactivity) antibody (Biolegend-406401 San Diego, CA) for 1 h. For mitochondrial permeabilization processes estimation, the samples were incubated overnight at 4 °C with unconjugated Bcl-2 (C2) sc-7882 antibody (Santa Cruz Biotechnology Inc., Dallas, TX, USA). As a secondary antibody, we used m-IgG1 BP-HRP: sc-525408 (Santa Cruz Biotechnology Inc., Dallas, TX, USA). Samples were incubated for 1 h. For apoptotic cell estimation, unconjugated active (cleaved) Caspase-3 Monoclonal Antibody bsm-33199M (Bioss Inc., Woburn, MA, USA) was used. The samples were incubated overnight at 4 °C, and the secondary antibody was goat Anti-Mouse IgG (Fc specific)–peroxidase antibody A2554 (Millipore-Sigma Aldrich, Merck KGaA, Darmstadt, Germany). Samples were incubated for 1 h. Both primary and secondary antibodies were used at a 1:100 dilution. To visualize the immunoreactions, the samples were washed with distilled water and Tris-buffered saline-Tween (TBST) for 5 min, and the diaminobenzidine (DAB) (Dako Liquid DAB+ Substrate Chromogen System K3468) was applied for 60 s. Excess chromogen was removed by washing with PBS-Tween. Finally, the slides were counterstained with Harris hematoxylin, dehydrated, and coverslipped. As a negative control, immunoreactions were performed using the same method with PBS instead of the primary antibody. Images were captured using a Lumenera INFINITY X-32 MP camera in a Carl Zeiss Axiostar microscope."}, "[3]": {"assay": "in vitro", "settings": "human, diluted human serum (1:5, v/v)", "quoted_text": "After adding 200 μL of ^225Ac-iPSMA-RGD to the diluted human serum (1:5, v/v) in a vial (n = 3), the mixture was kept at 37 °C in a dry bath. At 0.5 h, 1 h, and 3 h intervals, 200 μL of each vial was removed and 1 mL of methanol: acetonitrile (1:1, v/v) was added to precipitate the proteins. The total activity was measured in a NaI(Tl) well-type detector by 218 keV gamma emission of Fr-221 and the solution was centrifuged at 3000 rpm for 5 min. The supernatant was then decanted and the pellet measured to determine ^225Ac binding proteins."}, "[4]": {"system": "HCT116 cells", "assay": "Reactive oxygen species, Muse Oxidative Stress kit", "assay_type": "cell-based, human", "settings": "for M1 (ROS plot gate) / M2 (ROS plot gate): representative plot", "protocol": "Reactive oxygen species (ROS) were detected with the Muse™ Oxidative Stress kit, (Merck Millipore, Burlington, MA, USA) by measuring the produced intracellular superoxide radicals through dihydroethidium fluorescence. H2O2 (40 nM) was used as the positive control. Briefly, cells were seeded in cell culture flasks at a density of 1 × 10^6 cells and exposed to 4.5 Bq (2 Gy) and 9 Bq (4 Gy) of ^225Ac-iPSMA-RGD. Untreated cells were used as the control group. First, cells were trypsinized and suspended in 10 μL of 1X Assay Buffer. Then 190 μL of the oxidative stress reagent working solution was added to each cell suspension. The suspension was then gently vortexed and incubated at 37 °C with 5% CO2 for 30 min. Fluorescent intensities were examined by flow cytometry using a Muse Cell Analyzer (Merck Millipore, Burlington, MA, USA) and were performed in triplicate. Statistical analysis was performed with two-way ANOVA followed by Tukey’s multiple comparisons test using GraphPad Prism 5.0 Software. Data are shown as mean ± SEM. A p < 0.05 was considered statistically significant."}, "[5]": {"assay": "Absorbed radiation dose estimation (N and dose, OLINDA 2.0)", "assay_type": "in vivo, athymic mice", "source_text": "The %ID/organ data were used to calculate the biokinetic models. […] The ^225Ac decay chain was considered for dosimetry. […] DF (dose factor, mGy/MBq) values were obtained from OLINDA 2.0 code (Dose, Gy = NxDF)."}, "[6]": {"system": "HCT116 tumors", "assay": "Tumor size progression after treatment", "assay_type": "in vivo, mice", "settings": "37 kBq", "quoted_text": "A second group of mice was inoculated subcutaneously with 1 × 10^6 HCT116 cells. After the mice developed a tumor (0.220 ± 0.030 g), they were treated with 3.7 kBq (50 µL) of ^225Ac-iPSMA-RGD (n = 3) via tail vein injection. Animals were necropsied on day 11 post-treatment, as described above."}, "[7]": {"settings": "HCT116 tumor-bearing mice, 11 days after administration (37 kBq)", "protocol": "as §1"}, "[8]": {"assay": "Stability in saline solution (0.9% NaCl) and human serum by radio-HPLC", "assay_type": "physicochemical", "settings": "in both saline and serum", "protocol": "To evaluate the radiochemical purity, a reversed-phase HPLC system with Waters Millenium 32 software coupled to an in-line UV-Vis and radioactivity detector was used, as previously detailed. To recover free ^225Ac and ^225Ac-HEHA-iPSMA, fractions of 1.0 mL were collected, and the activity quantification was through the 218 keV-gamma emission of Fr-221 by assuming secular equilibrium."}, "[9]": {"settings": "HCT116 tumor, immunohistochemistry"}}}
{"smiles": "N=C(N)NCCC[C@@H]1NC(=O)[C@H](CCCCNC(=O)CCCN2C(=O)CC(SC[C@H](NC(=O)c3ccc(NNC(=S)Nc4ccc(CC5CN(CC(=O)O)CCN(CC(=O)O)CCN(CC(=O)O)CCN(CC(=O)O)CCN(CC(=O)O)CCN5CC(=O)O)cc4)nc3)C(=O)N[C@@H](Cc3ccc4ccccc4c3)C(=O)NCCCC[C@H](NC(=O)N[C@@H](CCC(=O)O)C(=O)O)C(=O)O)C2=O)NC(=O)[C@@H](Cc2ccccc2)NC(=O)[C@H](CC(=O)O)NC(=O)CNC1=O", "note": "(some centres unmarked) [^225Ac-iPSMA-RGD, ^225Ac-HEHA-HYNIC-iPSMA-RGD, metal not drawn]", "values": [{"measurement": "Biodistribution pattern", "setting": "[1]; healthy mice", "result": "rapid blood clearance with hepatobiliary and renal elimination and no accumulation in other tissue"}, {"measurement": "tissue uptake", "setting": "[1]; male, Nu/Nu, mouse, bone, 3.7 kBq, total radioactivity", "result": "0.5 ± 0.3", "unit": "%ID/g"}, {"measurement": "Bcl-2 expression in tumor", "setting": "[2]; [9]", "result": "inhibited the Bcl-2 expression"}, {"measurement": "Caspase-3 activity in tumor", "setting": "[2]; [9]", "result": "upregulated the Caspase-3 activity"}, {"measurement": "Tumor proliferative activity (Ki67 expression) vs untreated mice", "setting": "[2]; [9]", "result": "significantly lower"}, {"measurement": "Histological (H&E) evaluation of lung, spleen, kidney and liver", "setting": "[2]; treated mice vs untreated mice", "result": "no pathologic changes"}, {"measurement": "fraction unbound at 3 h", "setting": "[3]", "result": 0.923}, {"measurement": "Increase of HCT116 cells with oxidative stress", "setting": "[4]; 4 Gy", "result": "approximately 30%"}, {"measurement": "M1 (ROS plot gate)", "setting": "[4]; HCT116, 2 Gy", "result": 90.14, "unit": "%"}, {"measurement": "M2 (ROS plot gate)", "setting": "[4]; HCT116, 2 Gy", "result": 9.82, "unit": "%"}, {"measurement": "M1 (ROS plot gate)", "setting": "[4]; HCT116, 4 Gy", "result": 59.30, "unit": "%"}, {"measurement": "M2 (ROS plot gate)", "setting": "[4]; HCT116, 4 Gy", "result": 40.52, "unit": "%"}, {"measurement": "Radiation Absorbed Dose, Kidney", "setting": "[5]; athymic mice", "result": 17.63, "unit": "Gy/37 kBq"}, {"measurement": "Radiation Absorbed Dose, Liver", "setting": "[5]; athymic mice", "result": 15.85, "unit": "Gy/37 kBq"}, {"measurement": "Radiation Absorbed Dose, Tumor", "setting": "[5]; athymic mice, HCT116 tumor", "result": 237.07, "unit": "Gy/37 kBq"}, {"measurement": "Total nuclear transformations N=∫t=0t=11dAtdt, Tumor", "setting": "[5]; athymic mice, HCT116 tumor, t = 0 to 11 days", "result": 7.83, "unit": "MBq·h"}, {"measurement": "Total nuclear transformations N=∫t=0t=11dAtdt, Kidney", "setting": "[5]; athymic mice, t = 0 to 11 days", "result": 3.52, "unit": "MBq·h"}, {"measurement": "Total nuclear transformations N=∫t=0t=11dAtdt, Liver", "setting": "[5]; athymic mice, t = 0 to 11 days", "result": 5.23, "unit": "MBq·h"}, {"measurement": "Tumor-to-kidney radiation dose ratio", "setting": "[5]; mice, from Table 1", "result": "thirteen"}, {"measurement": "Tumor-to-liver radiation dose ratio", "setting": "[5]; mice, from Table 1", "result": "fifteen"}, {"measurement": "Tumor size progression compared to control group (untreated mice)", "setting": "[6]; HCT116 tumor-bearing mice", "result": "significantly lower (p < 0.05)"}, {"measurement": "Tumor size compared to ^225Ac-RGD and ^225Ac-PSMA groups", "setting": "[6]; eleven days after administration", "result": "significantly lower (p < 0.05)"}, {"measurement": "Tissue retention in ex-vivo radioisotopic imaging", "setting": "[7]", "result": "the tissue accumulating the radiotracer for the longest time is the tumor"}, {"measurement": "Decrease of radiochemical purity", "setting": "[8]; 5 h after preparation", "result": 2, "unit": "%"}, {"measurement": "Decrease of radiochemical purity", "setting": "[8]; 24 h after preparation", "result": 10, "unit": "%"}, {"measurement": "Decrease of radiochemical purity", "setting": "[8]; 72 h after preparation", "result": 30, "unit": "%"}]}
